Results from article PMC10563435, “Anti-GARP Antibodies Inhibit Release of TGF-β by Regulatory T Cells via Different Modes of Action, but Do Not Influence Their Function In Vitro” (ImmunoHorizons, 2023).

B1: 28G11 (anti-L-TGF-β / anti-LAP Ab), full-length antibody (antibody, V domains shown)
VH: EVKLVESGGGLVQPGGSLSLSCAASGFTFTDYYMSWVRQPPGKALEWLGFIRNKPNGYTTEYSASVKGRFTISRDNSQSILYLQMNVLRAEDSATYYCARYTGGGYFDYWGQGTTLTVSS
VL: DIQMTQTTSSLSASLGDRLTISCRASQDISNYLNWYQQKPDGTVKLLIYYTSRLHSGVPSRFSGSGSGTDYSLTISNLEQADIATYFCQQGDTLPWTFGGGTKLEIK
notes: A cryo-EM map of its Fab complex is deposited in EMDB, without coordinates; source: HEK293-E6, transiently transfected, purified (protein A MabSelect SuRe)
B2: Fab 28G11 (Fab, V domains shown)
VH: B1 VH
VL: B1 VL
notes: Fab part of the heavy chain of m5; The cryo-EM map is deposited in EMDB, without coordinates; As the light chain of m5; source: HEK293-E6 antibody cleaved with immobilized papain, Fc removed with protein A beads
B3: LHG-10 (anti-L-TGF-β/GARP Ab), full-length antibody (antibody, V domains shown)
VH: EVQLVQPGAELRNSGASVKVSCKASGYRFTSYYIDWVRQAPGQGLEWMGRIDPEDGGTKYAQKFQGRVTFTADTSTSTAYVELSSLRSEDTAVYYCARNEWETVVVGDLMYEYEYWGQGTQVTVSS
VL: DIQMTQSPSSLSASLGDRVTITCQASQSISSYLAWYQQKPGQAPNILIYGASRLKTGVPSRFSGSGSGTSFTLTISGLEAEDAGTYYCQQYASVPVTFGQGTKVELK
notes: source: HEK293-E6, transiently transfected, purified (protein A MabSelect SuRe)
B4: Fab LHG-10 (Fab, V domains shown)
VH: B3 VH
VL: B3 VL
notes: Fab part of the heavy chain of m8; As the light chain of m8; source: HEK293-E6 antibody cleaved with immobilized papain, Fc removed with protein A beads
B5: MHG-8 (anti-L-TGF-β/GARP Ab), full-length antibody (antibody, V domains shown)
VH: QVQLKESGPGLVAPSQSLSITCTVSGFSLTGYGINWVRQPPGKGLEWLGMIWSDGSTDYNSVLTSRLRISKDNSNSQVFLKMNSLQVDDTARYYCARDRNYYDYDGAMDYWGQGTSVTVSS
VL: DIQVTQSSSYLSVSLGDRVTITCKASDHIKNWLAWYQQKPGIAPRLLVSGATSLEAGVPSRFSGSGSGKNFTLSITSLQTEDVATYYCQQYWSTPWTFGGGTTLEIR
notes: as for B3

Columns and labels:
Settings in all cases: both partners purified
[1] = target: T1, GARP extracellular domain (aa 20-627), Fc-His part cleaved off (UniProt Q14392); experiment: BLI; Abs (10 µg/ml) captured for 180 s on AMC or AHC (anti-murine or anti-human IgG Fc capture) tips; 10 µg/ml GARP, GARP/L-TGF-β or L-TGF-β in solution for 180 s, 600 s dissociation; PBS
T1 construct: GARP (LRRC32) extracellular domain, aa 20-627; also called LRRC32; GARP-Fc-His; source: HEK293-E6, transiently transfected, purified from supernatant (Ni-NTA, SEC; Fc-His removed with papain and protein A beads); not shown: Fc (human IgG1), C-terminal, cleaved; His tag, C-terminal, cleaved
T1 sequence (Q14392 20-627): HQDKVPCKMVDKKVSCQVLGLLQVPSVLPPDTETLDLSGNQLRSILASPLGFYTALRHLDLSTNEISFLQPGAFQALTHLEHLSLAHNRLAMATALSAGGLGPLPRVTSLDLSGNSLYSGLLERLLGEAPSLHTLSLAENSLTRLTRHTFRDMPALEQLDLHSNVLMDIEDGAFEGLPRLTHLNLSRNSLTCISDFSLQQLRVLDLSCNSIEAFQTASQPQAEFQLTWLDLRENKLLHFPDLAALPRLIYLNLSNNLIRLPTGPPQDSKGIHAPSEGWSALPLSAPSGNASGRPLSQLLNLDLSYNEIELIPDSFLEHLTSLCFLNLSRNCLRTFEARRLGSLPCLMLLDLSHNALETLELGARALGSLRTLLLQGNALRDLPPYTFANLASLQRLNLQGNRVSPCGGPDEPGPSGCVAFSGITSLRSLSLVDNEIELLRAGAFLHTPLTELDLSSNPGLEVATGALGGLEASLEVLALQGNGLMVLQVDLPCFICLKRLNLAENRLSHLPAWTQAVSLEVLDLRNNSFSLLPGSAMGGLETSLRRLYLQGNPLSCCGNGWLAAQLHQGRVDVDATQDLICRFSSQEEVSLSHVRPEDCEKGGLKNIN

[2] = target: T2, His-L-TGF-β1 (N-terminal His tag followed by aa 30-390 of L-TGF-β1) (Homo sapiens (deposit 8C7H), UniProt P01137); experiment: as above
T2 construct: latent TGF-β1 (LAP and mature TGF-β), aa 30-390; The introduction says that the proprotein is cleaved by a furin-like convertase into LAP and mTGF-β, which stay noncovalently associated; also called latent form of TGF-β; source: HEK293-E6, transiently transfected, purified from supernatant (Ni-NTA, SEC)
T2 sequence (P01137 30-390): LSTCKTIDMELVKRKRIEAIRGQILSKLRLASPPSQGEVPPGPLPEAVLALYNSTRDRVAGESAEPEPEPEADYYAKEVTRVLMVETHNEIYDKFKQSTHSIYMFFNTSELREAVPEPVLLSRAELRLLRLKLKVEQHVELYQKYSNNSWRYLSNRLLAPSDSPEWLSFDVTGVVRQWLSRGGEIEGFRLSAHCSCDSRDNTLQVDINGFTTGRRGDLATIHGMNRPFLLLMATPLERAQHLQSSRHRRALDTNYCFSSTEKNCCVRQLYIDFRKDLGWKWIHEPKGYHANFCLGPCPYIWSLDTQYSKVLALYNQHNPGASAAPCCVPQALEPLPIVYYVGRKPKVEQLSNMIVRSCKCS

[3] = target: T3, GARP/L-TGF-β complex (recombinant) (Homo sapiens (deposit 8C7H), UniProt Q14392;P01137); experiment: cryo-EM structure; GARP/L-TGF-β incubated 30 min at 4°C with an excess of Fab, complex purified by SEC in 15 mM HEPES (pH 7.5), 100 mM NaCl; LHG-10 map 2.7 Å with atomic model; 28G11 map 7.5 Å with docked models of PDB 6GFF
T3 construct: GARP (LRRC32) extracellular domain, aa 20-627; latent TGF-β1 (LAP and mature TGF-β), aa 30-390; The introduction says that L-TGF-β is linked to GARP by two disulfide bonds and is cleaved into LAP and mTGF-β; also called L-TGF-β/GARP complex; GARP-Fc-His/L-TGF-β; source: HEK293-E6, transiently transfected, purified from supernatant (Ni-NTA, SEC; Fc-His removed with papain and protein A beads); not …

[4] = target: T4, L-TGF-β1 (aa 30-390), as it stands in the GARP/L-TGF-β complex (UniProt P01137); experiment: as above
T4 construct: latent TGF-β1 (LAP and mature TGF-β), aa 30-390; Untagged construct, used only within the complex m3; The introduction says it is cleaved into LAP and mTGF-β; also called LAP and mTGF-β; source: HEK293-E6, transiently transfected, purified as the complex with GARP
T4 sequence (P01137 30-390, one chain of several): as the sequence (P01137 30-390) above

[5] = target: T3, GARP/L-TGF-β complex (recombinant); experiment: BLI; Abs (10 µg/ml) captured for 180 s on AMC or AHC (anti-murine or anti-human IgG Fc capture) tips; 10 µg/ml GARP, GARP/L-TGF-β or L-TGF-β in solution for 180 s, 600 s dissociation; PBS

Binder	binding result [1]	binding result [2]	stoichiometry N [3]	binding result [4]	binding result [5]	binding result [3]
B1	no binding (tested: 10 µg/ml)	binds	–	–	–	–
B2	–	–	1	binds	–	–
B3	no binding (tested: 10 µg/ml)	no binding (tested: 10 µg/ml)	–	–	binds	–
B4	–	–	–	–	–	binds
B5	no binding (tested: 10 µg/ml)	no binding (tested: 10 µg/ml)	–	–	binds	–
